Assay results reported in patent US20210130470A1 (MacroGenics, published 2021).

Assays:
hPD-1-His [1] = biological target: T1, hPD-1-His (human, UniProt Q15116 25-170, limits assumed); experiment: ELISA, hPD-1-His (1 ug/mL) coated, goat anti-human-Fc-HRP detection
T1 construct: also called His-tagged soluble human PD-1; shPD-1
Excerpt: FIGS. 8A-8D show the results of ELISA studies measuring the binding of serially diluted binding molecules to human CTLA-4 and human PD-1. […] Goat anti-human-Fc-HRP (1:10,000) was employed as the secondary detection molecule to detect binding. FIGS. 8C-8D show the results of a study on the effect of altering orientations and binding domains on binding. […] Goat anti-human-Fcγ-HRP was employed as the secondary detection molecule to detect binding using PICO chemiluminescent substrate.
Goat anti-human-Fc-HRP (1:10,000) was employed as the secondary detection molecule to detect binding.

[2] = biological target: T2, PD-1 expressed on the cell surface (human, UniProt Q15116 21-288); experiment: cell-based competition (FACS): blocked ligand PD-L1-PE binding to NSO-PD-1 cells, MFI
T2 construct: also called NSO cells expressing PD-1; NSO-PD-1 cells

[3] = biological target: T2, PD-1 expressed on the cell surface; experiment: cell-based competition (FACS): blocked ligand PD-L2-PE binding to NSO-PD-1 cells, MFI
[4] = biological target: T3, human CTLA-4 expressed on the cell surface (human, UniProt P16410 36-223); experiment: flow cytometry (FACS) on Jurkat cells expressing huCTLA-4 but not PD-1, anti-human Fc secondary antibody, MFI
T3 construct: also called huCTLA-4; CHO cells expressing human CTLA-4
T3 sequence: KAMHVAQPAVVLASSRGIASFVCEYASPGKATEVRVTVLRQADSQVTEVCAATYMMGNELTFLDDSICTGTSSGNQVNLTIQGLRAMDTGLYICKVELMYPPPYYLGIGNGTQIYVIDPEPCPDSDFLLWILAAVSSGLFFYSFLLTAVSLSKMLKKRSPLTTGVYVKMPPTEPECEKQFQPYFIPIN
Excerpt: Binding of the DART and TRIDENT molecules to human CTLA-4 was detected using anti-human FC secondary Ab (FACS).

hPD-1-His [5] = biological target: T1, hPD-1-His; experiment: BIACORE, binder captured on F(ab)2 goat anti-human Fc, His-tagged soluble human PD-1 passed over at 6.25-100 nM; Langmuir 1:1 fit
hPD-1-His [6] = biological target: T1, hPD-1-His; experiment: competition ELISA: plate coated with shPD-1 and shCTLA-4 1:1 (2 ug/ml each); blocked ligand biotin-labeled PD-L1 6 ug/ml, streptavidin-HRP, RLU
Protocol: (§1) A series of ELISA assays were conducted to evaluate the ability of bispecific molecules of the invention to block ligand binding to PD-1 and […], alone and in combination. […] Plates were coated with a 1:1 mix of His-tagged soluble human PD-1 (shPD-1) and a His-tagged irrelevant antigen (irrAg) (2 μg/ml each), or a 1:1 mix of shPD-1 and a His-tagged soluble human CTLA-4 (shCTLA-4) (2 μg/ml each).

hPD-1-His [7] = biological target: T1, hPD-1-His; experiment: competition ELISA: plate coated with shPD-1 and irrelevant antigen 1:1 (2 ug/ml each); blocked ligand biotin-labeled PD-L1 6 ug/ml, streptavidin-HRP, RLU
Protocol: as §1

B1: PD-1 mAb 6 G4P (antibody, human IgG4 S228P, kappa, V domains shown)
VH: QVQLVQSGAEVKKPGASVKVSCKASGYSFTSYWMNWVRQAPGQGLEWIGVIHPSDSETWLDQKFKDRVTITVDKSTSTAYMELSSLRSEDTAVYYCAREHYGTSPFAYWGQGTLVTVSS
VL: EIVLTQSPATLSLSPGERATLSCRASESVDNYGMSFMNWFQQKPGQPPKLLIHAASNQGSGVPSRFSGSGSGTDFTLTISSLEPEDFAVYFCQQSKEVPYTFGGGTKVEIKR
notes: IgG4 with stabilized hinge, kappa; VH/VL of PD-1 mAb 6-ISQ; also called the PD-1 antibody; parental anti-PD-1 antibody
EC50 (hPD-1-His [1]): 0.3 nM | IC50 (read off the curve) [2]: ~0.5 nM | IC50 (read off the curve) [3]: ~0.5 nM | binding result [4]: no binding (tested: about 100 nM) | Kd (hPD-1-His [5]): 1.1 nM | IC50 (read off the curve) (hPD-1-His [6]): ~0.7 nM | IC50 (read off the curve) (hPD-1-His [7]): ~0.8 nM
